IntAct's records for PubMed 21048939

Biological target: arhg7_human ARHGEF7 (UniProt Q14155)
UniProt Q14155, sequence (Q14155 whole entry): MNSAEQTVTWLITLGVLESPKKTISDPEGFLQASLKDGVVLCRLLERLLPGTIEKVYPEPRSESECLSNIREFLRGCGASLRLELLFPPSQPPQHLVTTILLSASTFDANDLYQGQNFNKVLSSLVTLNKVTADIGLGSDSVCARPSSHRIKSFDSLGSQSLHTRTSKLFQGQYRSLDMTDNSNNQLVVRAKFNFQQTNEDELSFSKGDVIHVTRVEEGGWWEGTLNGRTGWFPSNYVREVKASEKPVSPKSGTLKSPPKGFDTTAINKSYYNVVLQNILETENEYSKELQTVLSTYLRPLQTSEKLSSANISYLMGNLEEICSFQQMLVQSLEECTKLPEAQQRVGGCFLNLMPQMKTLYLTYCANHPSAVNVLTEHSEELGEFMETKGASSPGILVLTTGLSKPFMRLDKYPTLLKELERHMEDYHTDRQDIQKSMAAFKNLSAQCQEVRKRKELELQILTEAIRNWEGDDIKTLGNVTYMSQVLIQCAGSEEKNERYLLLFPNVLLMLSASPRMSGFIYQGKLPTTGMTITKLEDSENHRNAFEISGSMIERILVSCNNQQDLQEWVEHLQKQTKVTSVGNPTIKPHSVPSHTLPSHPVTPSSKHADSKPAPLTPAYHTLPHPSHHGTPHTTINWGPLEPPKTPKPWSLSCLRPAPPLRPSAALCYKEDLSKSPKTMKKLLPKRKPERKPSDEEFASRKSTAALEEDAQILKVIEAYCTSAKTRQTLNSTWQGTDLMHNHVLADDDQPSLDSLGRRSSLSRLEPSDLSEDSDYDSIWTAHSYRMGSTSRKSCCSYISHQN

Effect of a mutation on the interaction, decreasing interaction:
Leucine-rich repeat serine/threonine-protein kinase 2 (Homo sapiens), Q5S007 N1437S
Leucine-rich repeat serine/threonine-protein kinase 2 (Homo sapiens), Q5S007 R1441C
Leucine-rich repeat serine/threonine-protein kinase 2 (Homo sapiens), Q5S007 T1348N
